This note sets out measurements from the DeepSol protein solubility set.

A short description of this data set: soluble on expression in E. coli; label from the status in PepcDB or PDB records.
Take “MRQRKDMPHNRLQTGGMTDEPTDIKAEAKPARTSDLRGFIRLLEERGQLRRIRQPVSLVHEITEIHRRVLADGGPALLFEQPVDHEGKVRKMPLLANLFGTRQRIEWGLGLETGGLPALGQKLTELREPRPPKSMAEAWSKLPLLRAALSMRQRNVSRAPVQEKVLTRDAVDLARLPVQWCWPGEPAPLITWPLVITRSPDDPDDINVGIYRMQVLGPDRVIMRWLAHRGGAHHHRLWQARGLDMPVTVAIGADPATILAAVMPLPDHISELGFSGLLRGAKSRIAKALTVPMPVPANAEIVLEGTVSATETAMEGPYGDHTGYYNSVEAFPVMTLSAITMRRDPIYLSTYTGRPPDEPSVLGEAMLEIFLPLVKRQFAEIVDLWMPPEACSYRVMVASIDKRYPGQAKRVMMGLWSMLPQFSYVKLIILVDPDIDVRSWTDVVWALSTRFDASRDTTIINDTPIDYLDFASPKAGLGGKMGLDATRKLPPETEREWGRVLSMTPDVVAKVDLVWRDLGLGERPVDKLAAALEHHHHHH”: the “soluble on expression in E. coli” value was “not soluble”.
The same measure for “MELYETSPYFYQEPRFYDGENYLPVHLQGFEPPGYERTELTLSPEAPGPLEDKGLGTPEHCPGQCLPWACKVCKRKSVSVDRRRAATLREKRRLKKVNEAFEALKRSTLLNPNQRLPKVEILRSAIQYIERLQALLSSLNQEERDLRYRGGGGPQPGVPSECSSHSASCSPEWGSALEFSANPGDHLLTADPTDAHNLHSLTSIVDSITVEDVSVAFPDETMPN”: “soluble”; for “TEKARDLFDKLMTQIQLDDTAKEHPLIQNGRIDKVIVHQQSRLWEFHLSFDELMPVMLYQTFMQQLELAFQQIAQVSVQITTNQTTFTEEQLTDYWQLALLNSQCNTPLVQKVLKTQTPQFEDRKIILPVDNEAVIPYLKQQYLPIIEELYFSYGF”: “not soluble”.
Then “GPGSMMGTDTEKGLYLHAAWDLFERLRPGQQLCVSFFEIYCNSLYDLLNHRHPIVLREDANRRVNICGVTWRTVATVEELWQLVRSGMEQRRTGTTTANEHSSRSHAVLSLRITDSENPDFTGSVNFVDLAGSERAADTAAHDRLTRLEGAEINKSLLALKECIRALDEKKKHVPFRGSRLTEVLRASFTGNSKTVMIAAVSPSSVNHEHTSNTLRYAFRVKGLSVPSVWPSTARNAPRLCLPVARSRSRAAAAVAAANEPTSAPAATECSFNSKHTDDAGSPRRPRHARRRRHAYKTAHEPQDEIGISDTNESCTSDTATESPRPRMQITQKACRHQVGRNSTGSSTSAKRHKTCCLVPYMVESLSQRRTRHRTRKERLPLPRAACSIGESSDLLLANASGTDSKSRALAEVILPHVKGATRHPSSLIAVDVAALEQRLTLQIIAQLRLDLGQQLEEVLMEKDTIISALRSENEKLRQALDKTGNVEQFYGGSPCDGEVQKRPAVLPALLYPSSPSILQEQLSSGVSTASVGDEPPLRVLSE”, with “not soluble”; and “MGDNENGDNLNNHQDSGSGSHHDAAPQQQQNNMSHQQQPQQQQHNEHNKQQQQQRDDVCRDFLKNICNRGSRCKFYHPSEAPPISDHDYNFCIDYQNRGCQRDNCRFVHAPRDEVERYKTTRELTLILARAIAAVGHGDTIGGIPICKEFQTGRCARGVNRCRYWHVNVDLERDRRNRGLPPSNDFGPGGGGGGMGGGGGSGGSGGGSGRFPPPPPPYGGGGRRRPYDDYDSDPIKRGRYGSDDRLMELEKRNAELSKEVDSLRRELQREHDRYEDLYALFRQQSGGAPAPPKAAAAASAVNDYYGTWGQKAPGW”, with “soluble”; and “MAHHHHHHMADVDEWRGASFKQEEDHSEATTSLLEKINATTIPVLLRSTNKSLQDLVDELLTLEKIARLGGDALSTQRLAVEVIRVYRVQGDYAKMLLVLEMLMRKRGQTKMTQSAMIAECAVMISDASLPKESRREVLERVVHLTDSRIHVELEHARFAIDLAKLMESEGQKRAACDLLSGLHVETITNMPRAEKLDALNCLIRLCLELEDYEHTPLVSRRINHRALARAESREAKLTYFELMRHYYTQRKSYFNVARCWYETYLTETEEGAKLAALSSMAVHYLIAEHATPKALEDLAECTAFSPATYFAERNAAIQGITTKLQKQLEDIPQLQYLLQRFTSIELIREKVAREVETLCANHPQLAGHEDRQLLLRSRCSEHDLLVVSRFYRRLRLDRLAQLVGLTPEHTEEFLMMMVASKTLYAKMDRVDGLVVFEAKKNATEVINGWNEAVERSVALLDKASHLIVKERMLHNISAARAQQAVTL”, with “not soluble”.
The same measure for “SGPWANICAGKSSNEIRTCDRHGCGQYSAQRSQRPHQGVDVLCSAGSTVYAPFTGMIVGQEKPYQNKNAINNGVRISGRGFCVKMFYIKPIKYKGPIKKGEKLGTLLPLQKVYPGIQSHVHIENCDSSDPTAYL”: “soluble”.
For the sequence “NLVNFHRMIKLTTGKEAALSYGFYGCHCGVGGRGSPKDATDRCCVTHDCCYKRLEKRGCGTKFLSYKFSNSGSRITCAKQDSCRSQLCECDKAAATCFARNKTTYNKKYQYYSNKHCRGSTPRC”, the “soluble on expression in E. coli” value is on record as “soluble”.
Then “MSLDYNNITEALQAFRTEKAYRHAPLRSCFFDMDGVLFDSMPAHARSWVEAAGECGIAAEPLDFYRWEGQKGSDTIKILFERGYGRLPTEKEIADMYGRKSQLFALYNSGNVIDDAPALVSDVCDRGLRIMLVTGSSQTDILQRLQRSYGDNFSPANMVTGADVHRGKPHPEPYLKALECVGMSPSEAFVVENAPLGVRAAVDAGIFTIAVNTGCLPDADLWDAGASLVLPSMAVLRSLLGELLTESLSSSAEGHHHHHH”, with “soluble”; and “MFILHRSMLPCGANQMDLIQENGQPRYGRFSQLPTAIGLDRYIYKSPYGKIEKGWRKKLKYKKFKFCSIQHQHYSIGLAIADIGWAGHGFFYVYDHAKHQVQEWNAIHAFARKTCVDEQPLFNQSYFYKSPFELDIQHANGVRYLRVTKYGEILLSARIFCAGTEPLSLCSPNGINGWTYTQKKTTLGVEGYFTTKQGEMIEFNETSLASLDDTCGFLRPETAWFWLSSSFWTDHGDRIGINLASGVNESFGNENCIWINGVLHSIADVLFERQDKNHWVIRSLDHKLELHVETGWRRYESINLRMVGSQFSQWQAKLTGKILLDENKTVVLNQEYALLEQHYAKW”, with “not soluble”.
Turning to “MRGSHHHHHHGAGDRGPEFPEESSPRRTPQSIPYQDLPHLVNADGQYLFCRYWKPTGTPKALIFVSHGAGEHSGRYEELARMLMGLDLLVFAHDHVGHGQSEGERMVVSDFHVFVRDVLQHVDSMQKDYPGLPVFLLGHSMGGAIAILTAAERPGHFAGMVLISPLVLANPESATTFKVLAAKVLNLVLPNLSLGPIDSSVLSRNKTEVDIYNSDPLICRAGLKVCFGIQLLNAVSRVERALPKLTVPFLLLQGSADRLCDSKGAYLLMELAKSQDKTLKIYEGAYHVLHKELPEVTNSVFHEINMWVSQRTATAGTASPPLEVDLQGDHGLSAWSHPQFEK”, the “soluble on expression in E. coli” value is recorded as “soluble”.
The same measure for “MNSDPTRERILHGLITLYILKELVKRPMHGYELQKSMFETTGQALPQGSIYILLKTMKERGFVISESSVNEKGQQLTVYHITDAGKKFLCDHSQALQLARKIIDDLLSTVDIIENRN”: “soluble”; for “MAHHHHHHMADQNPDLKVEEALKGADIKLLLIDFDGTLFVDKDIKVPSENIDAIKEAIEKGYMVSICTGRSKVGILSAFGEENLKKMNFYGMPGVYINGTIVYDQIGYTLLDETIETDVYAELISYLVEKNLVNQTIFHRGESNYVTEDNKYADFLQKMYSENRSIIIRHNEMLKYRTMNKLMIVLDPSESKTVIGNLKQKFKNKLTIFTTYNGHAEVTKLGHDKYTGINYLLKHYNISNDQVLVVGDAENDIAMLSNFKYSFAVANATDSAKSHAKCVLPVSHREGAVAYLLKKVFDLKK”: “soluble”; for “DKGTALLVNRSLRFGERTAEELMTPRVKIVTLSTTDTVADLIDTASRTGFSRFPVVESDLDDAVGVVHIKHAFAVPAHRRRTARLNSLAQKVPVVPSSLDGDALMERIRSDGMQVAFVVDEYGGTAGMVTMEDLIEEIVGDVR”: “not soluble”.
Then “MGSKRVCPDANNSVKSKKAKTLDFLAHPRRKIAIQFFYLGWEHDGLVQQPHTQNTVENHIMQALIKTHLIEDWTKCDFSRCGRTDKGVSAFKQTAAMVVRSLCPGDSGVFWSDSTQEHQKVDYKASGEELPYVKMLNGVLPKTIRVFAWAPVAQTFNARFDCNRRTYKYSFAKADLNLEKMRQGAELLVGEHDFSNFCQIDMNEKRLLQSYVRKVYEVKVEQVSTHPENDMYSMVELTVSGSGFLWHMIRYIVTILQEIGRENEQPSLISQLLDLKKYPSRPQYTLASDTPLCLFDCGYKSEDVEWKVHDYTLKSTVTGLQKTWATYQARSRMMENMLGELTGMAEFSSGDANKGLHEFVQDRPIPSNYIRFENRKMCESLESKKEKMAEKKKNGEESSDKL”, with “not soluble”; and “ATEAHPAGGRLVLRPVRKSDAGLFAMYAGDRRVAEGTRGIPHPLPPGAAEAFVNRSTAEARSEDVWVMDGSASGLSEVLGVISLKRMDRDQSEIAYWVAPAFWNAGFASEAVRALIEANPQGSRTIFAEVFQDNPQSARVLTNCGFEYIGDAEAFSVARNARVPTWTY”, with “not soluble”.
On to “MSLAKYFDPHIHMVSRTTDDYQNMAAAGITGVIEPAFWQGQARTSVGSFIDYFDTLLGWERFRASMFGIHHFCTIGLNPKEANDLSVANEVLEILPRYLVKDGVVAVGEIGYDDITPEEDRFLAAQLELARQFNLPVLVHTPHRDKIGGTKRTLAVIREVGIAENLVIIDHLNELTLPLVLDSDCWRGHSIYPNTKMSEQRMVALLQEYGSEKMVVNSAADWGISDPLKVPKTGQAMLAAGFSEAQVEQVLFHNPVDFFAQSGQLDKQLVSTEGHHHHHH”, for which the “soluble on expression in E. coli” value is listed as “not soluble”.
Then “MGHHHHHHSHMFNVMVDAKAQSTKLCSMEMGQEFAKMWHQYHSKIDELIEETVKEMITLLVAKFVTILEGVLAKLSRYDEGTLFSSFLSFTVKAASKYVDVPKPGMDVADAYVTFVRHSQDVLRDKVNEEMYIERLFDQWYNSSMNVICTWLTDRMDLQLHIYQLKTLIRMVKKTYRDFRLQGVLDSTLNSKTYETIRNRLTVEEATASVSEGGGLQGISMKDSDEEDEEDD”, with “not soluble”; and “GMTTTQPEAKDRISSLPVPDATQVPEGVRKLWAKAEANIGFVPNVFRAQAVNGEQFLAWWNYFNLLLNKEGYLTNAERELVAVVVSGVNRCLYCAVSHGAALREFLGDPQKADAVAVNWRHADLTEREQALAAYAEKLTRHPAEVTAADLEPLRAVGLDDHQIMELVQVIGMFNLTNRVSSALGFVPNPEYYRQAR”, with “soluble”.
Take “GATVHELSRDKKKDTVPWFPRTIQELDRFANQILSYGAELDADHPGFKDPVYRARRKQFADIAYNYRHGQPIPRVEYMEEEKKTWGTVFKTLKSLYKTHACYEYNHIFPLLEKYCGFHEDNIPQLEDVSQFLQTCTGFRLRPVAGLLSSRDFLGGLAFRVFHCTQYIRHGSKPMYTPEPDICHELLGHVPLFSDRSFAQFSQEIGLASLGAPDEYIEKLATIYWFTVEFGLCKQGDSIKAYGAGLLSSFGELQYCLSEKPKLLPLELEKTAIQNYTVTEFQPLYYVAESFNDAKEKVRNFAATIPRPFSVRYDPYTQRIEVLDNT”: the “soluble on expression in E. coli” value is on record as “soluble”.
The same measure for “MGSDKIHHHHHHVSLLGEERKSQIMQWLEEEGKVMTKDLIDRLDVSGETVRRYLEELERERQLKRVYGGAIYQGGKQESPISRRTDQLSRRLARYAKGWLADYSCIFLGKGEPVEHLLPYLSGSATIVTNSLSIASHLEQCRETGPFHGEIRLLGGTVDSYGQTVGVEVLQALDAYAFDASFLTFDGAEIERGFVSDDIESSLIQKAIIGRTKDVYAFLACDEFEGNRKYKVAEFRRAKIVLSPSTYPPSWEMKLFNERVNWTVVS”: “not soluble”.
